What all share (test): NMR
Common to all, as to settings: 308 K; not stated (50 mM buffer); 50 mM MES, MOPS, HEPES, TRIS/HCl or CAPS; zinc-loaded, inhibitor-free, folded

The target of data set [1] is His96 (UniProt position 96, IQFHFHWGSLD).
The target in data set [2] is His119 (UniProt position 119, YAAELHLVHWN).
In data set [3] the target is His107 (UniProt position 107, GQGSEHTVDKK).

A value given as a limit tells only on which side of the number the result lay.

From paper PMC10492700 come the findings set out here.

As for “Carbonic anhydrase II (HCAII), wild type (Homo sapiens)”, the pKa in data set [1] is listed as <5.1 (not titrating in the studied pH range, 5.1-9.9); in data set [2], <5.1 (not titrating in the studied pH range, 5.1-9.9); in data set [3] it was <5.1 (not titrating in the studied pH range, 5.1-9.9).
